Molecular target: T1, MBP-JAZ9-8×His (recombinant, E. coli-expressed) (Arabidopsis, UniProt Q8W4J8 1-267, limits assumed)
T1 construct: procedure cited from Katsir et al. 2008; also called Escherichia coli-expressed JAZ9 protein
T1 sequence: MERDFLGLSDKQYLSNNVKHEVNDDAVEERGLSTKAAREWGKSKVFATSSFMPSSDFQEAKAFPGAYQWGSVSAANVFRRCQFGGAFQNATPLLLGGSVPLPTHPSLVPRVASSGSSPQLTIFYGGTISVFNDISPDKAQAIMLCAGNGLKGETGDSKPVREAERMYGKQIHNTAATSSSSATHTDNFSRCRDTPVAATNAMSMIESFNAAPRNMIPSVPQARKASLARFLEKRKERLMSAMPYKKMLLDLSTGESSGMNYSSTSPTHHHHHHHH
Assay: Ni-resin pull-down of plant-expressed COI1-4×c-Myc with MBP-JAZ9-8×His, COR series, anti-c-Myc immunoblot
Method: Pull-down assays were performed with protein extracts from 4-mg pCOI1:COI1WT/A384V-4×c-Myc plants and 25 μg recombinant MBP-JAZ9-8×His. […] Eighty microliters of Ni resin (Invitrogen) were added, followed by an additional 15-min incubation period at 4° C. MBP-JAZ9-8×Hisbound Ni resin was washed three times on microcentrifuge spin columns with 0.25 mL binding buffer at 4° C. MBP-JAZ9-8×His was eluted from the resin with 100 μL of 300 mM imidazole. Proteins bound to MBP-JAZ9-8×His were analyzed by immunoblotting for the presence of COI1WT/A384V-4×c-Myc using anti-cMyc antibody. MBP-JAZ9-8×His recovered by the Ni affinity resin was detected by Coomassie blue staining.

- fold higher COR concentration required for robust co-receptor formation, against COI1WT-JAZ9: ~100 fold
B1: COI1A384V-4×c-Myc (plant-expressed) (receptor, not shown: small tags and cut ends)
chain: MEDPDIKRCKLSCVATVDDVIEQVMTYITDPKDRDSASLVCRRWFKIDSETREHVTMALCYTATPDRLSRRFPNLRSLKLKGKPRAAMFNLIPENWGGYVTPWVTEISNNLRQLKSVHFRRMIVSDLDLDRLAKARADDLETLKLDKCSGFTTDGLLSIVTHCRKIKTLLMEESSFSEKDGKWLHELAQHNTSLEVLNFYMTEFAKISPKDLETIARNCRSLVSVKVGDFEILELVGFFKAAANLEEFCGGSLNEDIGMPEKYMNLVFPRKLCRLGLSYMGPNEMPILFPFAAQIRKLDLLYALLETEDHCTLIQKCPNLEVLETRNVIGDRGLEVLAQYCKQLKRLRIERGADEQGMEDEEGLVSQRGLIALAQGCQELEYMVVYVSDITNESLESIGTYLKNLCDFRLVLLDREERITDLPLDNGVRSLLIGCKKLRRFAFYLRQGGLTDLGLSYIGQYSPNVRWMLLGYVGESDEGLMEFSRGCPNLQKLEMRGCCFSERAIAAAVTKLPSLRYLWVQGYRASMTGQDLMQMARPYWNIELIPSRRVPEVNQQGEIREMEHPAHILAYYSLAGQRTDCPTTVRVLKEPI
notes: In protein extracts of transgenic Arabidopsis (coi1-30 background); C-terminal 4×c-Myc tag; also called pCOI1:COI1A384V-4×c-Myc
